B4: LKB1 (enzyme, UniProt Q15831 1-430, looked up)
chain: MEVVDPQQLGMFTEGELMSVGMDTFIHRIDSTEVIYQPRRKRAKLIGKYLMGDLLGEGSYGKVKEVLDSETLCRRAVKILKKKKLRRIPNGEANVKKEIQLLRRLRHKNVIQLVDVLYNEEKQKMYMVMEYCVCGMQEMLDSVPEKRFPVCQAHGYFCQLIDGLEYLHSQGIVHKDIKPGNLLLTTGGTLKISDLGVAEALHPFAADDTCRTSQGSPAFQPPEIANGLDTFSGFKVDIWSAGVTLYNITTGLYPFEGDNIYKLFENIGKGSYAIPGDCGPPLSDLLKGMLEYEPAKRFSIRQIRQHSWFRKKHPPAEAPVPIPPSPDTKDRWRSMTVVPYLEDLHGADEDEDLFDIEDDIIYTQDFTVPGQVPEEEASHNGQRRGLPKAVCMNGTEAAQLSTKSRAEGRAPNPARKACSASSKIRRLSAC
notes: Cellular protein co-precipitated with FLAG-tagged AMPKα

One experiment addresses T1, Purified His6-USP10 (human, UniProt Q14694 1-798).
T1 construct: also called His-USP10; recombinant USP10; not shown: His6 tag
In words: GST pull-down with recombinant proteins (FIG. 3A). The procedure:
Purified His6-USP10 was incubated with the indicated GST tagged AMPK subunits coupled to GSH-Sepharose. Proteins retained on Sepharose were then blotted with the indicated antibodies. FIGS. 3B-3D are immunoblots showing the interaction of USP10 with AMPKα in cells. HCT116 cell lysates were subjected to immunoprecipitation (IP) with control IgG, anti-USP10 (FIG. 3B), anti-AMPKα1 (FIG. 3C), anti-AMPKα2 (FIG. 3D) antibodies. The immunoprecipitates were then blotted with the indicated antibodies. […] 293T cells transfected with the indicated constructs were lysed, and lysates were incubated with anti-FLAG beads. Proteins retained on beads were blotted with the indicated antibodies. […] HCT116 cells infected with lentivirus encoding the indicated shRNAs were transfected with the indicated constructs. Cell lysates and Ni-NTA pulldowns were immunoblotted as indicated. -Glu, glucose starvation. FIG. 3G is a picture of an immunoblot showing that USP10 deubiquitinase activity is required for AMPK deubiquitination. The indicated constructs were transfected into USP10 knockdown cell lines, and cells were placed in medium without glucose for 4 hours. Cell lysates were incubated with anti-HA beads and immunoblotted with the indicated antibodies. -Glu, glucose starvation. FIG. 3H is a picture of an immunoblot showing deubiquitination of AMPKα2 in vitro by USP10. Ubiquitinated AMPKα2 was incubated with purified USP10 or USP10CA in vitro, and then blotted with indicated antibodies.
Immunoprecipitation, immunoblotting, and in vitro pull-down assay—Cell lysates were prepared and immunoprecipitation and immunoblotting were performed as described elsewhere (Yuan et al., supra). In brief, cells were lysed with NETN buffer (20 mM Tris-HCl, pH 8.0, 100 mM NaCl, 1 mM EDTA, 0.5% Nonidet P-40) containing 50 mM β-glycerophosphate, 10 mM NaF, and 1 mg/ml each of pepstatin A and aprotinin.

Experiment [1] deals with B4. In words: FLAG-bead immunoprecipitation from HCT116 lysates, LKB1 immunoblot (FIG. 5G).
Experiment [2] concerns the target B4. In words: FLAG-bead immunoprecipitation from HCT116 lysates, LKB1 immunoblot (FIG. 6F).
For experiment [3], the target named is T2, WT AMPKα1 (FLAG-tagged, expressed in HCT116 cells) (human, UniProt Q13131 1-559).
T2 construct: Precipitated from cell lysates with FLAG beads; ubiquitinated in part in cells; also called FLAG-AMPKα; not shown: FLAG tag
The description is as above.

Experiment [4] addresses T3, WT AMPKα2 (FLAG-tagged, expressed in HCT116 cells) (human, UniProt P54646 1-552).
T3 construct: Precipitated from cell lysates with FLAG beads; ubiquitinated in part in cells; also called FLAG-AMPKα; not shown: FLAG tag
Description: FLAG-bead immunoprecipitation from HCT116 lysates, LKB1 immunoblot (FIG. 5G).

T1 sequence (Q14694 whole entry): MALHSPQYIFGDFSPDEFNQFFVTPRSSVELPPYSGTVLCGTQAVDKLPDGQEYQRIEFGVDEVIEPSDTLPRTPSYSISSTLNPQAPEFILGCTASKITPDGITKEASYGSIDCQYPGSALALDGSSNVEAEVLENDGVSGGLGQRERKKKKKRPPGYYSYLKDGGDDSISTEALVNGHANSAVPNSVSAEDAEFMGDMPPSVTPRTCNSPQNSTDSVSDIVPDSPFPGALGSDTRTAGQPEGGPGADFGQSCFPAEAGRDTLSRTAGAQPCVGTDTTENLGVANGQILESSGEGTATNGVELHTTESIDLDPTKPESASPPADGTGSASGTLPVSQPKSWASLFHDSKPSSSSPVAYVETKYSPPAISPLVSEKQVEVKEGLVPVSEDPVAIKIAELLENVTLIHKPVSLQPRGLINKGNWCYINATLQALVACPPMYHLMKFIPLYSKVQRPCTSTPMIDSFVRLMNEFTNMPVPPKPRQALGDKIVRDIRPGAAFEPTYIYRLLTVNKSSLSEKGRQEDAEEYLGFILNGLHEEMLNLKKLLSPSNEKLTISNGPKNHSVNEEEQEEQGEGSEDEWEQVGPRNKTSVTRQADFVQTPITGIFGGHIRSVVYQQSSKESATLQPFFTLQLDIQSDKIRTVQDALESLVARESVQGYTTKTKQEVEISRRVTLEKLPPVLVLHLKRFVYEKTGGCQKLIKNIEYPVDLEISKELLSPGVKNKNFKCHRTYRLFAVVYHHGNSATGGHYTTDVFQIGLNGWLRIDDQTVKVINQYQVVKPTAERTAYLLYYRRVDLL

B1: GST tagged AMPK β2 (other, UniProt O43741 1-272, looked up)
chain: MGNTTSDRVSGERHGAKAARSEGAGGHAPGKEHKIMVGSTDDPSVFSLPDSKLPGDKEFVSWQQDLEDSVKPTQQARPTVIRWSEGGKEVFISGSFNNWSTKIPLIKSHNDFVAILDLPEGEHQYKFFVDGQWVHDPSEPVVTSQLGTINNLIHVKKSDFEVFDALKLDSMESSETSCRDLSSSPPGPYGQEMYAFRSEERFKSPPILPPHLLQVILNKDTNISCDPALLPEPNHVMLNHLYALSIKDSVMVLSATHRYKKKYVTTLLYKPI
notes: not shown: glutathione S-transferase tag of vector pGEX-4T-1
With B1, the binding result with Purified His6-USP10 is “no binding”.

B2: AMPKα2 4KR mutant (FLAG-tagged, expressed in HCT116 cells) (enzyme)
chain: MAEKQKHDGRVKIGHYVLGDTLGVGTFGKVKIGEHQLTGHKVAVKILNRQKIRSLDVVGRIKREIQNLKLFRHPHIIKLYQVISTPTDFFMVMEYVSGGELFDYICKHGRVEEMEARRLFQQILSAVDYCHRHMVVHRDLKPENVLLDAHMNAKIADFGLSNMMSDGEFLRTSCGSPNYAAPEVISGRLYAGPEVDIWSCGVILYALLCGTLPFDDEHVPTLFKKIRGGVFYIPEYLNRSVATLLMHMLQVDPLKRATIKDIREHEWFKQDLPSYLFPEDPSYDANVIDDEAVKEVCEKFECTESEVMNSLYSGDPQDQLAVAYHLIIDNRRIMNQASEFYLASSPPSGSFMDDSAMHIPPGLKPHPERMPPLIADSPRARCPLDALNTTRPKSLAVKKAKWHLGIRSQSKPYDIMAEVYRAMKQLDFEWKVVNAYHLRVRRKNPVTGNYVKMSLQLYLVDNRSYLLDFRSIDDEVVEQRSGSSTPQRSCSAAGLHRPRSSFDSTTAESHSLSGSLTGSLTGSTLSSVSPRLGSHTMDFFEMCASLITTLAR
notes: also called quadruple K to R mutant (4KR); AMPKα 4KR mutant; not shown: FLAG tag
For the molecule B2, the binding result with LKB1 [1] is “binds”.

B3: AMPKα1 4KR mutant (FLAG-tagged, expressed in HCT116 cells) (enzyme)
chain: MRRLSSWRKMATAEKQKHDGRVKIGHYILGDTLGVGTFGKVKVGKHELTGHKVAVKILNRQKIRSLDVVGRIRREIQNLKLFRHPHIIKLYQVISTPSDIFMVMEYVSGGELFDYICKNGRLDEKESRRLFQQILSGVDYCHRHMVVHRDLKPENVLLDAHMNAKIADFGLSNMMSDGEFLRTSCGSPNYAAPEVISGRLYAGPEVDIWSSGVILYALLCGTLPFDDDHVPTLFKKICDGIFYTPQYLNPSVISLLKHMLQVDPMKRATIKDIREHEWFKQDLPRYLFPEDPSYSSTMIDDEALKEVCEKFECSEEEVLSCLYNRNHQDPLAVAYHLIIDNRRIMNEAKDFYLATSPPDSFLDDHHLTRPHPERVPFLVAETPRARHTLDELNPQRSKHQGVRKAKWHLGIRSQSRPNDIMAEVCRAIKQLDYEWKVVNPYYLRVRRKNPVTSTYSKMSLQLYQVDSRTYLLDFRSIDDEITEARSGTATPQRSGSVSNYRSCQRSDSDAEAQGKSSEVSLTSSVTSLDSSPVDLTPRPGSHTIEFFEMCANLIKILAQ
notes: also called 4KR AMPKα1; AMPKα 4KR mutant; not shown: FLAG tag
Consider B3, for which the binding result with LKB1 [2] is listed as “binds”. Take B4: the binding result in experiment [3] and in experiment [4] was “binds” each time.

B5: GST tagged AMPK β1 (other, UniProt Q9Y478 1-270, looked up)
chain: MGNTSSERAALERHGGHKTPRRDSSGGTKDGDRPKILMDSPEDADLFHSEEIKAPEKEEFLAWQHDLEVNDKAPAQARPTVFRWTGGGKEVYLSGSFNNWSKLPLTRSHNNFVAILDLPEGEHQYKFFVDGQWTHDPSEPIVTSQLGTVNNIIQVKKTDFEVFDALMVDSQKCSDVSELSSSPPGPYHQEPYVCKPEERFRAPPILPPHLLQVILNKDTGISCDPALLPEPNHVMLNHLYALSIKDGVMVLSATHRYKKKYVTTLLYKPI
notes: as for B1
Turning to B5, the binding result with Purified His6-USP10 was “no binding”.

B6: GST tagged AMPK γ1 (other, UniProt P54619 1-331, looked up)
chain: METVISSDSSPAVENEHPQETPESNNSVYTSFMKSHRCYDLIPTSSKLVVFDTSLQVKKAFFALVTNGVRAAPLWDSKKQSFVGMLTITDFINILHRYYKSALVQIYELEEHKIETWREVYLQDSFKPLVCISPNASLFDAVSSLIRNKIHRLPVIDPESGNTLYILTHKRILKFLKLFITEFPKPEFMSKSLEELQIGTYANIAMVRTTTPVYVALGIFVQHRVSALPVVDEKGRVVDIYSKFDVINLAAEKTYNNLDVSVTKALQHRSHYFEGVLKCYLHETLETIINRLVEAEVHRLVVVDENDVVKGIVSLSDILQALVLTGGEKKP
notes: as for B1
Turning to B6, the binding result in the experiment with Purified His6-USP10 is recorded as “no binding”.

Source of the values: patent US20190030139A1 (MAYO FOUNDATION FOR MEDICAL EDUCATION AND RESEARCH, published 2019).
